The target in series [1] is T1, human ADAM33 catalytic domain (human, UniProt Q9BZ11 204-409).
T1 construct: Expressed in Drosophila S2 cells as pre/pro/cat with a C-terminal Ser-Gly-His6 tag and processed at RGRR203/EARR; also called CAT domain; protease domain
T1 sequence: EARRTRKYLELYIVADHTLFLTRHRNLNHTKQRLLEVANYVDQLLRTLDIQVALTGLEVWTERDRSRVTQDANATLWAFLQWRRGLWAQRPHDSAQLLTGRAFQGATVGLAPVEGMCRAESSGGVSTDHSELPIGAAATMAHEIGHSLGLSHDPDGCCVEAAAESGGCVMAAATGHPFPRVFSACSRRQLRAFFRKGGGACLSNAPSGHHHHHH
In words: co-purification during chromatography; heterodimer not disrupted by APMA and/or detergents.

In series [2] the target is T1, human ADAM33 catalytic domain. In words: HPLC assay of KL-1 peptide (100 µM) cleavage by ADAM33cat (80 nM), TIMP pre-incubated 1 h at RT; competitive inhibition fit. On the procedure: (§1) The inhibition dissociation constants (Kᵢ) for inhibitors were determined as follows: an HPLC assay was performed in the presence or absence of inhibitors for 2 h at RT using ADAM33cat (80 nM) and KL-1 peptide substrate (100 μM). For testing tissue inhibitor of metalloproteinases (TIMPs), ADAM33 and human TIMPs were pre-incubated for 1 h at RT. Serial dilutions of TIMPs or synthetic inhibitors were tested starting at 4 μM (TIMP-2, -3, 4), 2 μM (TIMP-1, IK682), 20 μM (Marimastat), or 200 μM (Immunex compound 1: N-{DL-[2-(hydroxyamino-carbonyl)methyl]4-methylpentanoyl}-L-3-(tertbutyl)glycyl-L-alanine,2-aminoethylamide). Initial velocities were calculated by dividing cleaved product over reaction time. The initial velocities were plotted as a function of inhibitor concentration. For tight binding inhibitors (IK682, TIMP-3), the apparent inhibitor dissociation constants (Kᵢ app values) were calculated by fitting the curve to the following modified Morrison's equation: […]
(§2) The cleavage of the KL-1 peptide by ADAM33 was used to evaluate the effect of different classes of protease inhibitors. Inhibition constants of several hydroxamate compounds, known to inhibit either ADAM17 [IK682, and the Immunex compound 1] or MMPs [Marimastat], were determined. […] Human TIMP-1, -2, -3 and -4, endogenous inhibitors of MMPs and ADAMs, were tested for inhibition of ADAM33 activity.

The target in another series is T2, APP peptide (YEVHHQKLVF).
T2 chain: YEVHHQKLVF

In series [3] the target is T3, TRANCE peptide (VGSQHIRAEK).
T3 chain: VGSQHIRAEK

Series [4] deals with T4, insulin B chain peptide (HLVEALYLVC).
T4 chain: HLVEALYLVC

The target of series [5] is T5, MCF substrate peptide (Ac-LPPVAASSLNRD-NH2).
T5 chain: LPPVAASSLNRD

Series [6] addresses T6, KL-1 peptide (PPVAASSLRN).
T6 chain: PPVAASSLRN

Series [7] has as its target T7, human ADAM33 pro domain (wild type).
T7 chain: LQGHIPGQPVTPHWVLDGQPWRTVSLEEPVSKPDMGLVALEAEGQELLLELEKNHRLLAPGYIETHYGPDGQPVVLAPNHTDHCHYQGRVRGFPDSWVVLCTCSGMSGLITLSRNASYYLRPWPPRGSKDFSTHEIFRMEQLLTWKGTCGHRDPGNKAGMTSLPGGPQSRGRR

Series [8] concerns the target T1, human ADAM33 catalytic domain. As to the kind of experiment: HPLC assay of KL-1 peptide (100 µM) cleavage by ADAM33cat (80 nM), TIMP pre-incubated 1 h at RT; Morrison tight-binding fit (Ki app). How it is done: as §1, §2

A value given as a limit tells only on which side of the number the result lay.

B1: human ADAM33 pro domain C131A (other)
chain: LQGHIPGQPVTPHWVLDGQPWRTVSLEEPVSKPDMGLVALEAEGQELLLELEKNHRLLAPGYIETHYGPDGQPVVLAPNHTDHCHYQGRVRGFPDSWVVLATCSGMSGLITLSRNASYYLRPWPPRGSKDFSTHEIFRMEQLLTWKGTCGHRDPGNKAGMTSLPGGPQSRGRR
notes: The whole pro/cat entry is named; The protein was processed at the pro-CAT junction, so only the part before EARR is the pro domain
B1: the “percent of protease domain associated with the pro domain” value (“percent of protease domain associated” below) in series [1] is over 80%.

B2: human ADAM33 pro domain C131A/C179A (other)
chain: LQGHIPGQPVTPHWVLDGQPWRTVSLEEPVSKPDMGLVALEAEGQELLLELEKNHRLLAPGYIETHYGPDGQPVVLAPNHTDHCHYQGRVRGFPDSWVVLATCSGMSGLITLSRNASYYLRPWPPRGSKDFSTHEIFRMEQLLTWKGTAGHRDPGNKAGMTSLPGGPQSRGRR
notes: as for B1
In the case of B2, the “percent of protease domain associated” value in [1] was over 80%.

B3: human ADAM33 pro domain C179A (other)
chain: LQGHIPGQPVTPHWVLDGQPWRTVSLEEPVSKPDMGLVALEAEGQELLLELEKNHRLLAPGYIETHYGPDGQPVVLAPNHTDHCHYQGRVRGFPDSWVVLCTCSGMSGLITLSRNASYYLRPWPPRGSKDFSTHEIFRMEQLLTWKGTAGHRDPGNKAGMTSLPGGPQSRGRR
notes: as for B1
As to B3, the “percent of protease domain associated” value in series [1] is over 80%.

B4: human TIMP-4 (tissue inhibitor of metalloproteinases 4) (other, UniProt Q99727 30-224, looked up)
chain: CSCAPAHPQQHICHSALVIRAKISSEKVVPASADPADTEKMLRYEIKQIKMFKGFEKVKDVQYIYTPFDSSLCGVKLEANSQKQYLLTGQVLSDGKVFIHLCNYIEPWEDLSLVQRESLNHHYHLNCGCQITTCYTVPCTISAPNECLWTDWLLERKLYGYQAQHYVCMKHVDGTCSWYRGHLPLRKEFVDIVQP
As for B4, the Ki in series [2] came out at 223 nM.

B5: human ADAM33 catalytic domain (protein)
chain: EARRTRKYLELYIVADHTLFLTRHRNLNHTKQRLLEVANYVDQLLRTLDIQVALTGLEVWTERDRSRVTQDANATLWAFLQWRRGLWAQRPHDSAQLLTGRAFQGATVGLAPVEGMCRAESSGGVSTDHSELPIGAAATMAHEIGHSLGLSHDPDGCCVEAAAESGGCVMAAATGHPFPRVFSACSRRQLRAFFRKGGGACLSNAPSGHHHHHH
In general, Km refers to the concentration of substrate that gives half-maximal velocity. Broadly, the kcat is the maximal rate divided by the concentration of active sites. Turning to B5, in the series with APP peptide (YEVHHQKLVF), the Km was 1000 ± 100 µM, the kcat was 0.2 ± 0.1 s⁻¹, the kcat/Km entry is given as “(1.6±0.3)×10^2 M^-1 s^-1 (n=2)” and the “peptide cleavage (HPLC; site by MALDI-TOF MS)” value is “ADAM33 cleaved the APP peptide at H * Q”. In series [3], the “peptide cleavage (HPLC; site by MALDI-TOF MS)” value was “ADAM33 cleaved the ... human TRANCE peptide at H * I”. In addition, in [4], the “peptide cleavage (HPLC; site by MALDI-TOF MS)” value was “ADAM33 cleaved the ... insulin B chain peptide at A * L”. Further, in series [5], the Km result is given as “suggesting a Km value greater than the highest tested concentration (500 µM)”; the “catalytic efficiency (kcat/Km)” value is recorded as 2.6±0.5)×10^2 M^-1 s^-1; the “peptide cleavage (HPLC)” value is “The wild-type ADAM33 cleaved the peptide between the residues corresponding to Ala-190 and Ser-191”. In [6], the Michaelis constant (Km) stood at 3000 ± 100 µM, the kcat amounted to 0.7 ± 0.1 s⁻¹, the kcat/Km entry is recorded as “(2.6±0.5)×10^2 M^-1 s^-1 (n=3)” and the “peptide cleavage (HPLC; site by MALDI-TOF MS)” value is on record as “ADAM33 cleaved the ... KL-1 peptide at A * S”. The “catalytic efficiency of the pro/CAT complex on the MCF peptide, tested at 50 nM-1 µM” value in series [7] was “comparable to that of the CAT domain”.

B6: single chain zymogen form of ADAM33 (R203T/R207S) (protein)
chain: LQGHIPGQPVTPHWVLDGQPWRTVSLEEPVSKPDMGLVALEAEGQELLLELEKNHRLLAPGYIETHYGPDGQPVVLAPNHTDHCHYQGRVRGFPDSWVVLCTCSGMSGLITLSRNASYYLRPWPPRGSKDFSTHEIFRMEQLLTWKGTCGHRDPGNKAGMTSLPGGPQSRGRTEARSTRKYLELYIVADHTLFLTRHRNLNHTKQRLLEVANYVDQLLRTLDIQVALTGLEVWTERDRSRVTQDANATLWAFLQWRRGLWAQRPHDSAQLLTGRAFQGATVGLAPVEGMCRAESSGGVSTDHSELPIGAAATMAHEIGHSLGLSHDPDGCCVEAAAESGGCVMAAATGHPFPRVFSACSRRQLRAFFRKGGGACLSNAP
Regarding B6, the “catalytic efficiency on the MCF peptide” value in series [5] was “showed no significant difference to that of the CAT domain”.

B7: human TIMP-3 (tissue inhibitor of metalloproteinases 3) (other, UniProt P35625 24-211, looked up)
chain: CTCSPSHPQDAFCNSDIVIRAKVVGKKLVKEGPFGTLVYTIKQMKMYRGFTKMPHVQYIHTEASESLCGLKLEVNKYQYLLTGRVYDGKMYTGLCNFVERWDQLTLSQRKGLNYRYHLGCNCKIKSCYYLPCFVTSKNECLWTDMLSNFGYPGYQSKHYACIRQKGGYCSWYRGWAPPDKSIINATDP
B7 displayed a Ki in series [8] of 64 nM.

For the origin of these results see patent US20040151715A1 (SCHERING, published 2004).
